# Measured values published in patent US20240116985A1 (published 2024).
# Starred links: 1 amine or outer side, 2 acyl side, 3 side chain; linkers in the order of their positions; H or OH if unused. Positions of bridges follow the written chain, without caps; N, C: chain ends. Non-standard residues stand in square brackets, D forms with d. Primed or numbered codes have the meaning given here. *: point of attachment. PyrS2″ = (S)-3-amino-1-((pent-4-en-1-yloxy)carbonyl)pyrrolidine-3-carboxylic acid (stapling residue), C=CCCCOC(=O)N1CC[C@@](N[*:1])(C(=O)[*:2])C1; B5(16) = 2-amino-2-(pent-4-en-1-yl)hept-6-enoic acid = 2,2-bis(4-pentenyl)glycine (stitching residue), C=CCCCC(CCCC=C)(N[*:1])C(=O)[*:2]; B5(4) = 2,2-bis(4-pentenyl)glycine = 2-amino-2-(pent-4-en-1-yl)hept-6-enoic acid (stitching residue), C=CCCCC(CCCC=C)(N[*:1])C(=O)[*:2]; PyrS2 = (S)-3-amino-1-((pent-4-en-1-yloxy)carbonyl)pyrrolidine-3-carboxylic acid, C=CCCCOC(=O)N1CC[C@@](N[*:1])(C(=O)[*:2])C1; PyrS = (S)-1-((allyloxy)carbonyl)-3-aminopyrrolidine-3-carboxylic acid, C=CCOC(=O)N1CC[C@@](N[*:1])(C(=O)[*:2])C1; B5(3) = 2,2-bis(4-pentenyl)glycine (stitching residue), C=CCCCC(CCCC=C)(N[*:1])C(=O)[*:2]; Phe(3-COOH) = N[C@@H](Cc1cccc(C(=O)O)c1)C(=O)O; 2F3MeF = Cc1cccc(C[C@H](N[*:1])C(=O)[*:2])c1F; Phe(2-CF3) = N[C@@H](Cc1ccccc1C(F)(F)F)C(=O)O; Phe(2-Cl) = N[C@@H](Cc1ccccc1Cl)C(=O)O; Phe(4-F) = N[C@@H](Cc1ccc(F)cc1)C(=O)O; Met(O2) = CS(=O)(=O)CC[C@H](N)C(=O)O; Bta = N[C@@H](Cc1csc2ccccc12)C(=O)O; αAllylPro = C=CC[C@@]1(C(=O)O)CCCN1; tBuAla = CC(C)(C)C[C@H](N)C(=O)O; R8 = C=CCCCCCC[C@@](C)(N)C(=O)O; 3Thi = N[C@@H](Cc1ccsc1)C(=O)O; PyrS2(4) = not defined here; NH(CH2)6NH2 = NCCCCCCN*
# B1: I-882 (peptide)
# peptide: Ac-[αAllylPro]D[tBuAla][B5(3)]DDAAFN[PyrS2″][3Thi][Bta]Q-{NH(CH2)6NH2}
# modifications: staple 1-4, 4-11; not fully specified; printed as Ac-PL3-Asp-Npg-B5-Asp-Asp-Ala-Ala-Phe-Asn-PyrS2-3Thi-BztA-Gln-6AmHex
# B2: I-2319 (peptide)
# peptide: Ac-[αAllylPro]D[tBuAla][B5(4)]D[Phe(3-COOH)][(AcPpz)GlnR]AFL[PyrS2″][2F3MeF][Bta]A-NH2
# modifications: staple 1-4, 4-11
# B3: I-2061 (peptide)
# peptide: Ac-[αAllylPro]D[tBuAla][B5(4)]D[Phe(3-COOH)]AAFL[PyrS2(4)][3Thi][Bta][Met(O2)]-NH2
# modifications: staple 1-4, 4-11; reading uncertain; also: printed as Ac-PL3-Asp-Npg-B5-Asp-3COOHF-Ala-Ala-Phe-Leu-PyrS2-3Thi-BztA-Met2O-NH2
# B4: I-2280 (peptide)
# peptide: Ac-[αAllylPro]D[tBuAla][B5(4)]D[Phe(3-COOH)]AAFL[PyrS2][3Thi][Bta]NLLLLL-NH2
# modifications: staple 1-4, 4-11; also: later eluting staple isomer
# B5: I-78: Ac-Phe-Asp-Ala-R8-Asp-Asp-Ala-Ala-4FF-Val-PyrS-Phe-Trp-Gln-NH2 (stapled peptide) (peptide)
# peptide: Ac-FDA[R8]DDAA[Phe(4-F)]V[PyrS]FWQ-NH2
# modifications: staple 4-11
# B6: I-2520 (peptide)
# peptide: Ac-[αAllylPro]D[tBuAla][B5(4)]DXQAFL[PyrS2][Phe(2-CF3)][Bta]A-NH2
# modifications: staple 1-4, 4-11; not fully specified (residue 6); printed as Ac-PL3-Asp-Npg-B5-Asp-[CH2CChCO2H]TriAzDap-Gln-Ala-Phe-Leu-PyrS2-2F3MeF-BztA-Ala-NH2
# B7: I-1041 (peptide)
# peptide: Ac-[αAllylPro]DF[B5(16)]DDAAFN[PyrS2″][Phe(2-Cl)][Bta]Q-NH2
# modifications: staple 1-4, 4-11
# notes: Stapled (stitched) peptide composition
# B8: I-1047 (peptide)
# peptide: Ac-[αAllylPro]DF[B5(4)]DDAAFN[PyrS2″][Phe(2-Cl)][Bta]S-NH2
# modifications: staple 1-4, 4-11
# notes: as for B7
# B9: I-1045 (peptide)
# peptide: Ac-[αAllylPro]DF[B5(16)]DDAAFS[PyrS2″][Phe(2-Cl)][Bta]Q-NH2
# modifications: staple 1-4, 4-11
# notes: as for B7
# B10: I-2057 (peptide)
# peptide: Ac-[αAllylPro]D[tBuAla][B5(4)]D[Phe(3-COOH)]QAFL[PyrS2″][2F3MeF][Bta]A-NH2
# modifications: staple 1-4, 4-11
# Columns and labels:
# [1] = target: T1, B-cat-Halo (Nano-BRET construct expressed in HEK293 cells) (UniProt P35222 1-781); test: cell-based or functional assay
# T1 sequence (looked up): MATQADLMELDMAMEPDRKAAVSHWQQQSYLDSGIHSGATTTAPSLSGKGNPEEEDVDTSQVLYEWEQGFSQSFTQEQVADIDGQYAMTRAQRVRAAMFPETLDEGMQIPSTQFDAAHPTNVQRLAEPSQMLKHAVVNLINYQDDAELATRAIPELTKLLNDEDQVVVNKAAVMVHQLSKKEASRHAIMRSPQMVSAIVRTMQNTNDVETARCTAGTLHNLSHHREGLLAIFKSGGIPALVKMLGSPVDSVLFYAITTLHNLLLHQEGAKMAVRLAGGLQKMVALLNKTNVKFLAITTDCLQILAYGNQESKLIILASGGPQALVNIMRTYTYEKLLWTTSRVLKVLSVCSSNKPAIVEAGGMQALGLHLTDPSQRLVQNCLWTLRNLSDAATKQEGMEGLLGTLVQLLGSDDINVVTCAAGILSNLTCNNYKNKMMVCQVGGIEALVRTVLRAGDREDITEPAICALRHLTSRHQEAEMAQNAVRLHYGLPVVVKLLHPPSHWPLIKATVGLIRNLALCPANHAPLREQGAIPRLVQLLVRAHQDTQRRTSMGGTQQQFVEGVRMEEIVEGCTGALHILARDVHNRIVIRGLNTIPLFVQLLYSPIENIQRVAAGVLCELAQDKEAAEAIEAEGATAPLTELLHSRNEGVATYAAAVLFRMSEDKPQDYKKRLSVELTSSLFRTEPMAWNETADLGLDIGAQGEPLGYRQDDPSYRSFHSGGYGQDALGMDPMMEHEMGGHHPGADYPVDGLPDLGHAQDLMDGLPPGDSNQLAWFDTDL
# [2] = target: T2, beta-catenin in DLD1 TCF/LEF luciferase reporter cells (UniProt P35222 2-781); test: cell-based or functional assay
# T2 sequence (looked up): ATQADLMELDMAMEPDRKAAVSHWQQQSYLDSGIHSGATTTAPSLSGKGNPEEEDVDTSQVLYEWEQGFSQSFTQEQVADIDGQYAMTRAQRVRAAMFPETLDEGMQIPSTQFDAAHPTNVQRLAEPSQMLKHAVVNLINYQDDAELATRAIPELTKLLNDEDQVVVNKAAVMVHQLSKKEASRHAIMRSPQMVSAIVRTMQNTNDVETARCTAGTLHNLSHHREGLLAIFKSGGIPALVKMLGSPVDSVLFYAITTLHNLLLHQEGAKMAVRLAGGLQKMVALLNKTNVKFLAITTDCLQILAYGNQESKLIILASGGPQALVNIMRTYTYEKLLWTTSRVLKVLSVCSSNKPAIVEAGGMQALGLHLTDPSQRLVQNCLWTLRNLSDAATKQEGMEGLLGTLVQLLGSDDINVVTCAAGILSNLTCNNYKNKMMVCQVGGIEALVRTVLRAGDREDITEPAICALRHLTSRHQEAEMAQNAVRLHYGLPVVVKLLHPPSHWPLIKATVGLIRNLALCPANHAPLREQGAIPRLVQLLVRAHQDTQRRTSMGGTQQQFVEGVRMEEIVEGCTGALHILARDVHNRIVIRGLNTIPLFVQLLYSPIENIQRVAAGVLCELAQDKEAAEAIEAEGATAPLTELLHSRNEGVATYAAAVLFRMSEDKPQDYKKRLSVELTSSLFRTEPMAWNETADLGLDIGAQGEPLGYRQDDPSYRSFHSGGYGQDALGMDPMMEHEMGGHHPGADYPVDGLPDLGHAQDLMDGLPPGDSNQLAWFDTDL
# [3] = target: T3, Bcat-Halo (UniProt P35222 1-781); test: cell-based or functional assay
# T3 sequence (looked up): T1 sequence (looked up)
# [4] = target: T4, beta-catenin in DLD1 TCF/LEF luciferase reporter cells (UniProt P35222 2-781); test: cell-based or functional assay; remark: listed apart in the source
# T4 sequence (looked up): T2 sequence (looked up)
# [5] = target: T5, B-cat-Halo (beta-catenin HaloTag construct expressed in HEK293 cells) (UniProt P35222 1-781); test: cell-based or functional assay
# T5 sequence (looked up): T1 sequence (looked up)
# [6] = target: T6, B-cat-Halo (UniProt P35222 1-781); test: cell-based or functional assay
# T6 sequence (looked up): T1 sequence (looked up)
# [7] = target: T7, beta-catenin in DLD1 TCF/LEF luciferase reporter cells (UniProt P35222 1-781); test: cell-based or functional assay
# T7 sequence (looked up): T1 sequence (looked up)
# [8] = target: T8, full-length beta-Catenin (Uniprot ID P35222) (Homo sapiens (Human), UniProt P35222 2-781); test: fluorescence polarization competition; peptide titrated against 10 nM full-length beta-catenin with 10 nM 5FAM-TCF4(10-53) probe
# T8 construct: also called bCat; B-Catenin
# T8 sequence: T2 sequence (looked up)
# Description: (§1) The plate was incubated protected from light for 60 minutes at 20° C. prior to read. Reads were performed on a CLARIOstar plate reader (BMG Labtech) in duplicate, and data were fitted to a 1:1 binding model with hill slope using an in-house script. All provided concentrations are final concentrations.
# [9] = target: T9, B-cat-Halo (beta-catenin HaloTag construct expressed in HEK293 cells) (UniProt P35222 1-781); test: cell-based or functional assay; remark: listed apart in the source
# T9 sequence (looked up): T1 sequence (looked up)
# [10] = target: T10, beta-catenin in DLD1 TCF/LEF luciferase reporter cells (UniProt P35222 1-781); test: cell-based or functional assay; remark: listed apart in the source
# T10 sequence (looked up): T1 sequence (looked up)
# [11] = target: T11, Bcat-Halo (UniProt P35222 1-781, HaloTag NanoBRET 618 Ligand bound to the Halo part); test: NanoBRET Abs IC50, HEK293 cells transfected with Bcat-Halo and TCF4-Luc (competitor: TCF4-Luc); cellular assay
# T11 construct: Expressed in transfected HEK293 cells (NanoBRET acceptor construct); also called beta-catenin HaloTag fusion; not shown: HaloTag
# T11 sequence (looked up): T1 sequence (looked up)
# [12] = target: T12, full-length beta-Catenin (Uniprot ID P35222) (Homo sapiens (Human), UniProt P35222 2-781); test: fluorescence polarization competition; 10 nM full-length beta-catenin + 10 nM 5FAM-TCF4 10-53 as competitor probe
# T12 construct: Used at 10 nM in the FP probe solution as 'full-length'; Also used here for the endogenous beta-catenin of the DLD1 TCF/LEF reporter cells (functional rows); also called bCat; B-Catenin
# T12 sequence: T2 sequence (looked up)
# Description: as §1
binder,measurement,setting,value
B1,NanoBRET IC50,[1],22.5 µM
B2,DLD1 4% Abs IC50,[2],1.7 µM
same,NanoBRET Abs IC50,[3],1 µM
B3,DLD1 4% Abs IC50,[4],1.8 µM
same,NanoBRET Abs IC50,[5],1.9 µM
B4,NanoBRET Abs IC50,[6],> 20 µM
same,DLD1 4% Abs IC50,[7],> 20 µM
B5,IC50,[8],5 µM
B6,NanoBRET Abs IC50 (uM); Bcat-Halo / TCF4-Luc in HEK293 cells,[9],5.9 µM
same,DLD1 4% Abs IC50 (uM); TCF/LEF luciferase reporter assay,[10],5.7 µM
B7,IC50,[11],> 20 µM
same,EC50,[12],0.008 µM
B8,IC50,[11],28.4 µM
same,EC50,[12],0.005 µM
B9,IC50,[11],23.9 µM
same,EC50,[12],0.005 µM
B10,DLD1 4% Abs IC50,[4],4 µM
same,NanoBRET Abs IC50,[5],1.5 µM
